Experimental data published in patent US20250270287A1 (KEROS THERAPEUTICS, published 2025).

T1: ActRIIB-A1 (SEQ ID NO: 120) chimera-Fc protein (Homo sapiens (Human), UniProt Q13705 28-134)
T1 construct: Tested as chimera-Fc protein; not shown: linker (if any) and Fc domain
T1 sequence: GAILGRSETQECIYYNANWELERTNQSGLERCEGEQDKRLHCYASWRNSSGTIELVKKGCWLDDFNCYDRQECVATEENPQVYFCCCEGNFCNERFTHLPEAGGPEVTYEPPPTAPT

T2: ActRIIB (SEQ ID NO: 31) Fc protein (human, UniProt Q13705 20-134)
T2 construct: also called ActRII-Fc; wild-type extracellular ActRIIB; not shown: linker (if any) and Fc domain
T2 sequence: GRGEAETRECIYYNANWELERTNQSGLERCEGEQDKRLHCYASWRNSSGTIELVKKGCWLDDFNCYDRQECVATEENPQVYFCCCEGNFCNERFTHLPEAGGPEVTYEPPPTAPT

T3: growth differentiation factor 8 (GDF-8) (UniProt O14793 267-375)
T3 construct: also called myostatin
T3 sequence (looked up): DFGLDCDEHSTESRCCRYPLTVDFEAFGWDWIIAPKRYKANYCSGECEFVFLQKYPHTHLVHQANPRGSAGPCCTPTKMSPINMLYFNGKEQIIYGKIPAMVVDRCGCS

B1: BMP-9 (ligand, UniProt Q9UK05 320-429, looked up)
chain: SAGAGSHCQKTSLRVNFEDIGWDSWIIAPKEYEAYECKGGCFFPLADDVTPTKHAIVQTLVHLKFPTKVGKACCVPTKLSPISVLYKDDMGVPTLKYHYEGMSVAECGCR
notes: also called bone morphogenetic protein 9
B2: BMP-10 (ligand, UniProt O95393 317-424, looked up)
chain: NAKGNYCKRTPLYIDFKEIGWDSWIIAPPGYEAYECRGVCNYPLAEHLTPTKHAIIQALVHLKNSQKASKACCVPTKLEPISILYLDKGVVTYKFKYEGMAVSECGCR
B3: Activin A (ligand, UniProt P08476 311-426, looked up)
chain: GLECDGKVNICCKKQFFVSFKDIGWNDWIIAPSGYHANYCEGECPSHIAGTSGSSLSFHSTVINHYRMRGHSPFANLKSCCVPTKLRPMSMLYYDDGQNIIKKDIQNMIVEECGCS
B4: Activin B (ligand, UniProt P09529 293-407, looked up)
chain: GLECDGRTNLCCRQQFFIDFRLIGWNDWIIAPTGYYGNYCEGSCPAYLAGVPGSASSFHTAVVNQYRMRGLNPGTVNSCCIPTKLSTMSMLYFDDEYNIVKRDVPNMIVEECGCA
B5: ActRIIA-A8 (SEQ ID NO: 110) chimera-Fc protein (Fc fusion)
chain: GAILGRSETQECLFFNANWEKDRTNQTGVEPCYGDKDKRRHCFATWKNISGSIEIVKQGCWLDDINCYDRTDCVEKKDSPEVYFCCCEGNMCNEKFSYFPEAGGPEVTYEPPPTAPT
notes: Tested as chimera-Fc protein; not shown: linker (if any) and Fc domain
B6: GDF-11 (ligand, UniProt O95390 299-407, looked up)
chain: NLGLDCDEHSSESRCCRYPLTVDFEAFGWDWIIAPKRYKANYCSGQCEYMFMQKYPHTHLVQQANPRGSAGPCCTPTKMSPINMLYFNDKQQIIYGKIPGMVVDRCGCS
notes: also called growth and differentiation factor 11

How the values were obtained:
[1] = biological target: T1, ActRIIB-A1 (SEQ ID NO: 120) chimera-Fc …; assay: SPR (Biacore 8K), Fc protein captured on anti-human IgG, ligand injected
Procedure: (§1) The Cytiva Biacore 8k was used to measure the kinetics of the interactions between the ActRII- and chimera-Fc proteins and Activin A/Activin B/growth differentiation factor 8 (GDF-8)/GDF-11/BMP-9/BMP-10. Series S CM4 Sensor Chips were immobilized with anti-human capture antibody using the reagents and protocol in the Biacore Human Antibody Capture Kit (GE Life Sciences). Briefly, anti-human IgG was diluted to 25 μg/mL in immobilization buffer. The carboxylated surface of the sensor was activated by injecting a mixture of EDC and NHS. The anti-human IgG was injected into the activated sensor chip flow cells at 10 μL/min for a total of 7 minutes until the chip reached an immobilization level of 3000 resonance units (RU). Ethanolamine was injected to deactivate the sensor surfaces. The chip has 8 flow cells to be used for binding analysis, each with an in-line reference surface to subtract instrument noise and non-specific binding to the sensor chip. The ActRII- and chimera-Fc proteins were captured in their own flow cell to allow for a maximum analyte binding response of 20-30 RU. This was done by injecting 10-20 μL of the ActRII- and chimera-Fc proteins into the flow cells at a concentration of 2 μg/mL until 60-90 RU was captured. Ligand at a single concentration was injected at […] for 60 seconds and then allowed to dissociate under buffer flow for no less than 5 minutes. After the cycle completed, captured protein was stripped from the chip with an injection of 3 M magnesium chloride, the regeneration buffer provided with the Biacore Human Antibody Capture Kit. Each ligand was injected in a concentration series, including a buffer only 0 nM concentration to serve as a double reference for subtracting out instrument noise. The data were analyzed using the Biacore Insight Evaluation Software.

[2] = biological target: T2, ActRIIB (SEQ ID NO: 31) Fc protein; assay: as above
Procedure: as §1

Activin A [3] = biological target: B3; assay: cell-based or functional assay
Activin B [4] = biological target: B4; assay: cell-based or functional assay
GDF-11 [5] = biological target: B6; assay: cell-based or functional assay
BMP-9 [6] = biological target: B1; assay: cell-based or functional assay
Activin A [7] = biological target: B3; assay: SPR (Biacore 8K), Fc protein captured on anti-human IgG, ligand injected
Procedure: as §1

Activin B [8] = biological target: B4; assay: as above
Procedure: as §1

[9] = biological target: T3, growth differentiation factor 8 (GDF-8); assay: as above
Procedure: as §1

GDF-11 [10] = biological target: B6; assay: as above
Procedure: as §1

BMP-9 [11] = biological target: B1; assay: as above
Procedure: as §1

BMP-10 = biological target: B2; assay: as above
Procedure: as §1

Binder: B1
- Kd [1]: 0.0151 nM
- Kd [2]: 0.0358 nM

Binder: B2
- Kd [1]: 0.0175 nM
- Kd [2]: 0.0105 nM

Binder: B3
- Kd [1]: 0.0448 nM

Binder: B4
- Kd [1]: < 0.001 nM

Binder: B5
- IC50, SBE-luciferase reporter in HEK293 cells (Activin A [3]): 75 ng/mL
- IC50, SBE-luciferase reporter in HEK293 cells (Activin B [4]): 100 ng/mL
- IC50, SBE-luciferase reporter in HEK293 cells (GDF-11 [5]): 180 ng/mL
- IC50, BRE-luciferase reporter in C2C12 cells (BMP-9 [6]): 1.9 µg/mL
- Kd (Activin A [7]): 0.04 nM
- Kd (Activin B [8]): < 1 pM
- Kd [9]: 0.229 nM
- Kd (GDF-11 [10]): < 1 pM
- Kd (BMP-9 [11]): 8.1 nM
- Kd (BMP-10): 0.0397 nM

Binder: B6
- Kd [1]: < 0.001 nM
- Kd [2]: < 0.001 nM
